From the RNAGym collection of RNA variant scans (doi:10.7554/elife.80360)

B1: Hairpin Ribozyme (parent)
chain: GUCCUCUUUCACGUGCGCGUGAAAGAGAGAAGUGAACCAGAGAAACACACGUUGUGGUAUAUUACCUGGUA

Variants of: B1
Assay: self-cleavage, relative activity (ratio to wild type); higher = more cleavage; co-transcriptional

Variant	self-cleavage
A36C A64G	0.281
A35C U67C	0.217
A35C G40C	0.184
C37G C48U	0.144
G34U U53A	1.46
G34U U53C	0.405
G34U U53G	1.58
C37A G68A	0.302
A35G C50A	0.326
A35G C50G	0.19
A36C U63A	0.0749
C37U A45G	0.0764
C37A C48A	0.189
A35U G57A	0.193
G34U U52A	1.5
C37A C65U	0.261
C37A C65A	0.259
A36C A43C	0.07
A36C A43U	0.126
G34U G42U	1.17
A35G G51A	0.964
A35G G51U	0.949
A36G C38G	0.127
A35C U55C	0.0658

Variant	self-cleavage
C37G G56A	0.204
A35G G56U	0.154
A35G G56A	0.108
A36G U52C	1.24
A36C A59C	0.0815
A35G C46G	0.0878
A35G C46U	0.145
G34U C38A	0.658
G34U G40U	0.7
G34U U70G	1.48
A35U A61C	0.265
A35G C38U	0.371
A35G C38G	0.129
C37G A44U	0.118
C37G A44G	0.185
A36C G42C	0.245
A35G G68U	0.208
C37G C66A	0.207
A36C A45U	0.124
A35C A64G	0.513
A35C A64C	0.211
C37G C38U	0.128
A36G A45G	0.28
A36G A45U	0.219

Variant	self-cleavage
G34U C66A	1.02
G34U C66G	0.548
G34U C66U	1.31
A36U U70G	0.665
A36U U70C	0.473
A36U U70A	0.775
A36G G56U	0.183
A35U G56C	0.124
C37A G69A	0.434
C37G C65G	0.225
A36U C46U	0.31
C37A A45U	0.169
A35C A45U	0.0921
A35C A45G	0.083
G34U A59C	0.27
G34U G69U	1.1
G34U G69C	0.759
A36U G54A	0.212
A36U G54C	0.278
A36U A49U	0.124
C37A A43U	0.15
C37A A43C	0.0917
A36C C37G	0.215
A36C A41G	0.894

Variant	self-cleavage
A36C G68A	0.193
A36C G68C	0.153
A36C G68U	0.213
A36U U53G	0.224
G34U G54C	1.15
G34U G54U	1.26
A35C C37G	0.282
C37U A44C	0.1
A36G U70G	1.03
C37A C46G	0.0923
C37A C46A	0.179
G34U C37G	1.01
C37A U60C	0.337
A36C A44G	0.157
A36C A44C	0.122
A36C A44U	0.307
A36C G56A	0.09
A36C G56C	0.186
A36C G56U	0.216
C37A A59C	0.137
C37A A59U	0.0631
C37A A59G	0.241
C37A G54A	0.187
C37A G54U	0.269

Variant	self-cleavage
C37A G54C	0.114
A35U C37A	0.406
A35U C37U	0.457
A35C A59C	0.258
A35C A61C	0.151
A35C A61G	0.234
A35U U55A	0.129
A35U A71C	1.57
A35U A49G	0.31
C37G A61G	0.155
C37A G42A	0.124
G34U A45G	0.472
A35U G40U	0.134
C37G A39C	0.163
C37U A59C	0.162
C37U A59G	0.152
A36U U62C	0.185
C37G U70G	0.405
C37A A39G	0.181
A35G A41C	1.31
A36U G68A	0.106
A36U G68C	0.129
G34U U62A	0.981
G34U G56A	0.788

Variant	self-cleavage
C37U A61G	0.126
C37U A61C	0.146
C37U A61U	0.248
A36G A49U	0.204
A36U A64U	0.165
A35C U53C	0.835
A35C U53A	0.995
A35G A59C	0.104
G34U G57U	1.28
A36C U53G	0.371
A36C U53A	0.635
C37A G51A	0.535
A35C A36G	0.683
A35C A36U	0.606
A35U C46G	0.146
A35G C65U	0.227
A35G C65G	0.221
A36G C66A	0.0924
A36U U60C	0.804
A36U U60G	0.246
A35C C46G	0.0823
A36C A49U	0.203
A35G G40C	0.175
C37U A71C	0.93

Variant	self-cleavage
A35C G51U	1.24
A36U U67G	0.177
A36U U67A	0.235
A36C A71G	0.303
G34U C65U	1.3
G34U C65A	1.57
G34U C48G	0.371
G34U C48A	0.497
A36C U55A	0.243
A36C U55G	0.174
C37A U63C	0.131
C37A U63A	0.163
A36G A39C	0.218
A36C G51C	0.562
C37U A64C	0.205
A36G G42U	0.227
A36G C65A	0.73
C37G U62A	0.153
A35C U58G	0.954
A35C U58A	0.841
A36G A43U	0.0504
A36G A43C	0.228
A36G A41U	1.31
C37A A47U	0.19

Variant	self-cleavage
C37A A47C	0.108
G34U C46G	0.397
G34U C46U	0.102
A36C C65G	0.3
A35C G68C	0.145
A35C G68A	0.279
C37A C38G	0.31
A35U A59C	0.302
A35U G42U	0.109
A35U A36U	0.524
C37G A47G	0.15
A36G C37U	0.0788
A36U U58G	0.417
A36U U58C	0.719
A36U A39U	0.171
G34U U63C	0.589
G34U U63G	0.261
A36U G56U	0.21
G34U A49C	0.433
G34U A49G	1.49
G34U A49U	1
A36U G42C	0.234
A35C U70G	0.676
A35C U70A	0.805

Variant	self-cleavage
A36U U63A	0.207
A36U U63G	0.165
A36U U63C	0.172
A35G A36U	0.695
A35G A36C	0.495
C37A U62G	0.127
A36C A61U	0.162
C37A U67C	0.0944
A35C G57C	0.134
A35C G57U	0.318
G34U G68A	1.17
A35C G56C	0.196
C37U A41U	0.969
G34U G51C	1.49
A35C A39G	0.591
A35C A39C	0.226
C37G A64C	0.136
C37G A64U	0.192
A35G U52A	1.02
A35U A64C	0.143
A35G A49U	0.174
A35G G57A	0.222
A35G G57U	0.205
A36U C65G	0.106

Variant	self-cleavage
A35C C48U	0.101
A35G A39C	0.257
A36G G51U	0.97
C37A A44G	0.208
C37A A44C	0.203
C37A A44U	0.109
C37G G42U	0.0921
A36G A71G	0.982
C37U A47U	0.177
C37U A47G	0.167
C37G U58G	0.136
A35G C48U	0.132
A36C U70C	0.607
A35U U63C	0.152
A35G U55G	0.283
C37A U70C	0.438
C37A U70A	0.368
A36C G69C	0.304
C37G U52G	0.377
A35G G54A	0.477
A35U U70C	0.702
A35U U70A	0.703
A35G C37G	0.422
A35G C37A	0.416

Variant	self-cleavage
A36U C38G	0.0875
A35C A44C	0.0528
A35C A44U	0.216
A35U C65U	0.223
A35U C65G	0.204
A36U A59U	0.132
A36C U58A	0.391
A36C U58C	0.685
C37A U52A	0.484
C37A U55C	0.1
A36U A41G	0.476
A35C C66A	0.293
A35C C66G	0.159
G34U A71C	1.72
C37U A43G	0.146
C37A A64G	0.187
A35U A43C	0.0178
A36G U55C	0.324
A36G U55G	0.271
A35G U60A	1.11
A36G C46U	0.189
A35C A49U	0.119
C37G U53A	0.245
C37A C50G	0.128

Variant	self-cleavage
C37A C50A	0.124
A36G G40A	0.349
A36G G40U	0.0848
A35G C66U	0.553
C37G G40A	0.0652
A35G A61C	0.0992
A35G A61U	0.245
C37G U55C	0.178
C37G U55A	0.226
A36U U55G	0.163
A36U U55C	0.124
A36C A39C	0.216
A35G A64U	0.129
C37U A49U	0.211
A36U C37G	0.149
A36G U67C	0.335
A35U C66U	0.151
A35U C66G	0.0865
A36C C66G	0.131
C37G A49C	0.348
C37G G57C	0.21
A36U G57C	0.172
G34U C50U	0.913
G34U C50G	1.12

Variant	self-cleavage
A35G G42C	0.231
A35G G42A	0.174
A35G U53C	0.928
A35G U53G	0.955
A35U U60A	0.426
A35C U63A	0.13
A35C U52C	1.05
A35C U52G	0.728
A36U G51U	0.648
C37A G56C	0.174
C37G G54C	0.149
A35G A45U	0.25
A35C A47C	0.564
A36U A61C	0.196
G34U U55C	1.36
A36G G68C	0.211
A35C C38A	0.201
A36G U62C	0.328
C37G G51C	0.469
A35U U53G	0.429
A35U U53C	1.04
A36G G69U	0.237
A36G G69A	0.414
G34U A61U	1.13

Variant	self-cleavage
A35G U58G	0.881
A35C A41U	1.35
A35C A71C	1.27
A35U G68C	0.206
A35U G68U	0.177
G34U A64U	0.883
A36C G57U	0.264
A35U U62A	0.158
A36U C48A	0.0449
C37G G68U	0.189
C37G A71G	0.341
A35U G51A	0.965
A35U G51U	0.794
A35U G51C	0.484
A35U U58G	0.553
A35U U58C	0.798
A36C U62A	0.0722
A35U C38A	0.135
A35U C38U	0.216
C37U A39U	0.208
A36C C50U	0.222
A36G U58G	0.952
